# In patent US20230174629A1:
# Legend:
# [1] = target: MPER-AdiC fusion protein (Salmonella enterica (AdiC); HIV-1 (gp41 MPER epitope)) (UniProt P60065); test: gel filtration chromatography, complex against AdiC alone
# [2] = target: MPER-GlpF fusion protein (E. coli (GlpF); HIV-1 (gp41 MPER epitope)); test: size exclusion chromatography, complex against GlpF alone
# [3] = target: MPER-AdiC fusion protein (Salmonella enterica (AdiC); HIV-1 (gp41 MPER epitope)) (UniProt P60065)
# [4] = target: MPER-Fluc-Bpe fusion protein (Bordetella pertussis (Fluc-Bpe); HIV-1 (gp41 MPER epitope)); test: gel filtration chromatography, complex against fusion protein alone
# [5] = target: MPER-Fluc-Bpe fusion protein (Bordetella pertussis (Fluc-Bpe); HIV-1 (gp41 MPER epitope)); test: negative stain EM 2-D class averages, 1 dimer:0.3 Fab molar ratio
Substance,elution volume shift [1] [mL],elution volume shift [2] [mL],stoichiometry (Fab per AdiC dimer) (Fab per AdiC dimer) [3],shift in the retention time [4] [mL],percent of total particles in the doubly-occupied class [5] [%]
10E8v4 Fab fragment,0.5,1,1,2,–
VRC42 Fab fragment,–,–,–,–,2.5
